By Kd is commonly meant a measure of binding affinity in units of concentration.

The text below walks through data of PMC6565627, “Therapeutic effects of a novel BAFF blocker on arthritis” (Signal Transduction and Targeted Therapy, 2019).

Read-outs that look alike come from different tables or passages of the source.

Test [1] concerns the target T1, human B-cell activating factor (BAFF) (human, UniProt Q9Y275 134-285).
For test [2], the target named is T1, human B-cell activating factor (BAFF). In words: ELISA; equilibrium binding in solution: human BAFF at 25 pM mixed with antagonist (0.04 nM to 655.36 nM) overnight at room temperature; unbound BAFF detected by ELISA.
For test [3] the target is unchanged. In words: cell-based or functional assay.

T1 sequence (Q9Y275 134-285): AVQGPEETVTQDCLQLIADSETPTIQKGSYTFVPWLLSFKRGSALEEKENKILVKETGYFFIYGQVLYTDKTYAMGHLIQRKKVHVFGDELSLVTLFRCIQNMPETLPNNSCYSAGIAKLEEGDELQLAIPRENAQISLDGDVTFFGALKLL

Regarding “BAFF-Trap (variant B101): CRD2 of TACI, CRD of Br3 and Fc domain of human IgG1 (Fc fusion)”, the IC50 of inhibition of Raji cell proliferation induced by BAFF (1 μg/ml) and anti-IgM, CCK-8, 72 h; blocks BAFF from its receptors TACI and Br3 on Raji cells in test [1] came to 50.6 nM. The same molecule came in with a Kd in test [2] of 3.62 nM. In test [1], “BAFF-Trap variant B102: CRD of Br3, CRD2 of TACI and Fc domain of human IgG1 (Fc fusion)” gave an IC50 of inhibition of Raji cell proliferation induced by BAFF (1 μg/ml) and anti-IgM, CCK-8, 72 h of 165 nM.

B1: TACI-Fc (Fc fusion, UniProt O14836 1-165, looked up)
chain: MSGLGRSRRGGRSRVDQEERFPQGLWTGVAMRSCPEEQYWDPLLGTCMSCKTICNHQSQRTCAAFCRSLSCRKEQGKFYDHLLRDCISCASICGQHPKQCAYFCENKLRSPVNLPPELRRQRSGEVENNSDNSGRYQGLEHRGSEASPALPGLKLSADQVALVYS
In the case of B1, in test [3], the “IC50 of inhibition of Raji cell proliferation induced by BAFF (1 μg/ml) and anti-IgM, CCK-8, 72 h” value came out at 69.5 nM.
